Source: US7151087 (US Dept. of Health and Human Services, dated 2006)

T1: CC CKR1, stably expressed on HEK 293 cells (Homo sapiens (Human), UniProt P32246 1-355)
T1 construct: also called CC CKLR1
T1 sequence: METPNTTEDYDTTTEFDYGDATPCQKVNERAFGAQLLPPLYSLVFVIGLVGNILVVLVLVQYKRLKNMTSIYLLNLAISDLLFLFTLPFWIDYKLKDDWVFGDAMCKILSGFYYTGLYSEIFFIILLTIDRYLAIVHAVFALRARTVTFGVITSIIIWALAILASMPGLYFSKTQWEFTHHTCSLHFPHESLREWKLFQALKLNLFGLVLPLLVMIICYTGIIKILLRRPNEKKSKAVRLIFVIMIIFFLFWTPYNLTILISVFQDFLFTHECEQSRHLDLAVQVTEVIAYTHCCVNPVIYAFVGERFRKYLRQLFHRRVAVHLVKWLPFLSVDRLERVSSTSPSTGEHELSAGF

B1: RANTES (ligand, human, UniProt P13501 24-91, looked up)
chain: SPYSSDTTPCCFAYIARPLPRAHIKEYFYTSGKCSNPAVVFVTRKNRQVCANPEKKWVREYINSLEMS
notes: also called unlabeled RANTES
B2: MIP-1β (ligand, human, UniProt P13236 24-92, looked up)
chain: APMGSDPPTACCFSYTARKLPRNFVVDYYETSSLCSQPAVVFQTKRSKQVCADPSESWVQEYVYDLELN
B3: MIP-1α (ligand, human, UniProt P10147 23-92, looked up)
chain: ASLAADTPTACCFSYTSRQIPQNFIADYFETSSQCSKPGVIFLTKRSRQVCADPSEEWVQKYVSDLELSA
notes: also called unlabeled MIP-1α
B4: CC CKR2B, stably expressed on HEK 293 cells (receptor)
chain: MLSTSRSRFIRNTNESGEEVTTFFDYDYGAPCHKFDVKQIGAQLLPPLYSLVFIFGFVGNMLVVLILINCKKLKCLTDIYLLNLAISDLLFLITLPLWAHSAANEWVFGNAMCKLFTGLYHIGYFGGIFFIILLTIDRYLAIVHAVFALKARTVTFGVVTSVITWLVAVFASVPGIIFTKCQKEDSVYVCGPYFPRGWNNFHTIMRNILGLVLPLLIMVICYSGILKTLLRCRNEKKRHRAVRVIFTIMIVYFLFWTPYNIVILLNTFQEFFGLSNCESTSQLDQATQVTETLGMTHCCINPIIYAFVGEKFRRYLSVFFRKHITKRFCKQCPVFYRETVDGVTSTNTPSTGEQEVSAGL
notes: also called CCR2b
B5: MCP-3 (ligand)
chain: not shown
notes: also called unlabeled MCP-3

Legend:
[1] = target: T1, CC CKR1, stably expressed on HEK 293 …; experiment: radioligand binding at 37° C. to CC CKR1 cells
Method: (§1) After incubation for 1 h at 4° C. or 37° C., unbound chemokines were separated from cells by pelleting through a 10% sucrose/PBS cushion, and the cell-associated counts were determined.

[2] = target: T1, CC CKR1, stably expressed on HEK 293 …; experiment: homologous competition against ^125I-MIP-1β on CC CKR1 cells
Method: as §1

[3] = target: T2, CC chemokine receptor 5 (CCR5), clone 8.5 cDNA, stably expressed on HEK 293 cells (human, UniProt P51681 1-352); experiment: homologous competition against ^125I-MIP-1β on CCR5.1 cells
T2 construct: also called CC CKR5; CCR5 transfectants
Method: as §1

[4] = target: T2, CC chemokine receptor 5 (CCR5), clone …; experiment: homologous competition against ^125I-MIP-1β; reference CC CKR1 cells
Method: as §1

[5] = target: T1, CC CKR1, stably expressed on HEK 293 …; experiment: homologous competition against ^125I-MIP-1α on CC CKR1-transfected HEK 293 cells, 4° C.
Method: as §1
Each of the six CCR5 transfectants were tested at 4° C.

[6] = target: T1, CC CKR1, stably expressed on HEK 293 …; experiment: homologous competition against ^125I-MIP-1α on CC CKR1 cells
Method: as §1

[7] = target: T2, CC chemokine receptor 5 (CCR5), clone …; experiment: homologous competition against ^125I-MIP-1α on CCR5.1 cells
Method: as §1

[8] = target: T1, CC CKR1, stably expressed on HEK 293 …; experiment: heterologous competition against ^125I-RANTES on CC CKR1 cells, 37° C.
Method: as §1

[9] = target: T1, CC CKR1, stably expressed on HEK 293 …; experiment: homologous competition against ^125I-MIP-1α; reference CCR5.1 cells
Method: as §1

RANTES = target: B1; experiment: radioligand binding to intact transfected HEK 293 cells, 0.2 nM ^125I-chemokine
Method: as §1

MIP-1β = target: B2; experiment: as above
Method: as §1

MIP-1α = target: B3; experiment: as above
Method: as §1

[10] = target: T1, CC CKR1, stably expressed on HEK 293 …; experiment: radioligand binding at 37° C. to CC CKR1-transfected HEK 293 cells
Method: as §1

T2 sequence (P51681 whole entry): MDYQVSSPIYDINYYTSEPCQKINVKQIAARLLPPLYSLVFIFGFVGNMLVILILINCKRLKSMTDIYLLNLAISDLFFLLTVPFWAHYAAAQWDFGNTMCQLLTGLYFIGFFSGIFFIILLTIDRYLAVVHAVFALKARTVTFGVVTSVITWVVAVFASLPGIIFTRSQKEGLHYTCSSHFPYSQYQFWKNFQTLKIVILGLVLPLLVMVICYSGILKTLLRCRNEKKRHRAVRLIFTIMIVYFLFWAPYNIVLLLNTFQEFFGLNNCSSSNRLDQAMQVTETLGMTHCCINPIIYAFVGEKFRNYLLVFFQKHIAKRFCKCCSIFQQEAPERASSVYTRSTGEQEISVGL

B1
binding result [1]: binds

B2
IC50 [2]: ~0.2 µM
IC50 [3]: ~0.1 µM
fold more effective competition on CCR5.1 than on CC CKR1 [4]: ~2 fold

B3
Ki [5]: 0.01 µM
IC50 [6]: ~0.005 µM
IC50 [7]: ~0.1 µM
IC50 [8]: ~0.02 µM
fold more effective competition on CC CKR1 than on CCR5.1 [9]: 20 fold

B4
binding result (RANTES): no binding
binding result (MIP-1β): no binding
binding result (MIP-1α): no binding

B5
binding result [10]: binds
